This passage reports normalized binding to TrkB (500 nM rapamycin) results from article PMC10651130.

The assay addresses RapR-LIMK1-Flag (LIMK1 T508D with iFKBP inserted in place of E360, flanked by GPG linkers) (UniProt P53667). Briefly: co-IP.

For the substance “TrkB-EGFP (tropomyosin receptor kinase B, EGFP-tagged) (from UniProt Q16620 32-822)”, the normalized binding to TrkB (500 nM rapamycin) worked out at 98.6%.
